Experimental data taken from patent US12139520B2 (priority 2020, dated 2024).
Numbered stars: 1 amine (or outer) side, 2 acyl side, 3 side chain; on linkers, the order of the positions; unused ones are H or OH. Bridge positions count the residues as written; N and C are the ends. Square brackets hold non-standard residues; d marks the D form. Side chains are listed from the residue outwards. Ends that are not written are not given here. * marks the point of attachment. C20 diacid = O=C(O)CCCCCCCCCCCCCCCCCCC(=O)*; γGlu = O=C(O)[C@H](CCC(=O)[*:2])N[*:1]; Hyp = O=C(O)[C@@H]1C[C@@H](O)CN1; Cit = NC(=O)NCCC[C@H](N)C(=O)O; AEEA = NCCOCCOCC(=O)O

T1: hAMY3R (human, UniProt P30988)
T1 sequence 1: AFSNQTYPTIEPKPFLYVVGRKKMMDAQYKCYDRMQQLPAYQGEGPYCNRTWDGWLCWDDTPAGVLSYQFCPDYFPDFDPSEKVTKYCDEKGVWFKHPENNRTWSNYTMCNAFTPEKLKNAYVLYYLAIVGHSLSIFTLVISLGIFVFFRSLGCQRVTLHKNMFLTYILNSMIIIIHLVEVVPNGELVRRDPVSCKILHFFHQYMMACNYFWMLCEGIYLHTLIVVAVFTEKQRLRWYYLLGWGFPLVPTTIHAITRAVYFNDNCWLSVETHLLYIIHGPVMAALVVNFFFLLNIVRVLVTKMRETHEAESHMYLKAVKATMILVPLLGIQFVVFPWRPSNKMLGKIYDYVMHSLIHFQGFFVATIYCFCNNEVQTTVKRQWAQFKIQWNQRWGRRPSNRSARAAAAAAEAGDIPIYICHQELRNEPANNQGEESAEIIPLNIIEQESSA
T1 sequence 2: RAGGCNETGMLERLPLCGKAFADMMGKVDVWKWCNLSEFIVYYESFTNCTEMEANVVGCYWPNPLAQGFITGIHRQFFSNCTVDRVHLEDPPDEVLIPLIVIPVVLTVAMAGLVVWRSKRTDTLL


Columns and labels:
hAMY3R = biological target: T1, hAMY3R; test: cell-based or functional assay
hAM1R = hAM1R (human, UniProt Q16602); test: cell-based or functional assay

Row | hAMY3R EC50 (cAMP) (hAMY3R) | hAM1R EC50 (cAMP) (hAM1R) | Binder
1 | 0.008 nM | 295 nM | KCNFATCTVQRLAHQIYQFTDKDKDNVAPRTEVGSNG[Hyp]-NH2 (disulfide 2-7 (inferred); ends not checked) [SEQ ID NO: 17]
2 | 0.04 nM | 2980 nM | GCRFGTCTVQRLAHQIYQFTDKDKDNVAPRTKISPQG[Hyp]-NH2 (disulfide 2-7 (inferred); ends not checked) [SEQ ID NO: 146]
3 | 0.041 nM | > 5000 nM | {C20 diacid-γGlu}-KCNTATCTVQ[Cit]LAEQIAQFTDKDKDNVAPPTNVGSNG[Hyp]-NH2 (disulfide 2-7 (inferred); ends not checked) [SEQ ID NO: 153]
4 | 0.035 nM | 2980 nM | GCRTGTCTVQRLAHQIYQFTDKDKDNVAPRSKVGPNG[Hyp]-NH2 (disulfide 2-7 (inferred); ends not checked) [SEQ ID NO: 139]
5 | 0.047 nM | 2980 nM | GCRTGTCTVQRLAHQIYQFTDKDKDNVAPRSKIGPNG[Hyp]-NH2 (disulfide 2-7 (inferred); ends not checked) [SEQ ID NO: 157]
6 | 0.034 nM | > 5000 nM | {C20 diacid-γGlu}-KCNTATCTVARLAHQINQFTDKDKDPVAPPTNVGSNG[Hyp]-NH2 (disulfide 2-7 (inferred); ends not checked) [SEQ ID NO: 137]
7 | 0.041 nM | 213 nM | GCRFGTCTVQRLAHQIYQFTDKDKDNVAPRSKVGPQG[Hyp]-NH2 (disulfide 2-7 (inferred); ends not checked) [SEQ ID NO: 152]
8 | 0.038 nM | > 5000 nM | {C20 diacid-γGlu}-KCNTATCTVQRLAEQIAQFTDKDKDPVAPPTNVGSNG[Hyp]-NH2 (disulfide 2-7 (inferred); ends not checked) [SEQ ID NO: 144]
9 | 0.054 nM | 106 nM | GCRFGTCTVQRLAHQIYQFTDKDKDNVAPRTKISPQGY [SEQ ID NO: 164]
10 | 0.051 nM | 2980 nM | GCRTGTCTVQRLAHQIYQFTDKDKDNVAPRTKIGPQG[Hyp]-NH2 (disulfide 2-7 (inferred); ends not checked) [SEQ ID NO: 161]
11 | 0.033 nM | 68.4 nM | GCRFGTCTVQRLAHQIYQFTDKDKDNVAPRSNVGPQG[Hyp]-NH2 (disulfide 2-7 (inferred); ends not checked) [SEQ ID NO: 135]
12 | 0.039 nM | 2980 nM | GCRFGTCTVQRLAHQIYQFTDKDKDNVAPRSNVSPQG[Hyp]-NH2 (disulfide 2-7 (inferred); ends not checked) [SEQ ID NO: 145]
13 | 0.041 nM | 44.9 nM | GCRTGTCTVQRLAHQIYQFTDKDKDNVAPRSNIGPNG[Hyp]-NH2 (disulfide 2-7 (inferred); ends not checked) [SEQ ID NO: 151]
14 | 0.035 nM | 2980 nM | GCRTGTCTVQRLAHQIYQFTDKDKDNVAPRSNVGPQGY [SEQ ID NO: 138]
15 | 0.047 nM | 2980 nM | GCRTGTCTVQRLAHQIYQFTDKDKDNVAPRTKVGPQGY [SEQ ID NO: 156]
16 | 0.036 nM | 2980 nM | GCRTGTCTVQRLAHQIYQFTDKDKDNVAPRTNIGPNGY [SEQ ID NO: 142]
17 | 0.042 nM | 2980 nM | GCRFGTCTVQRLAHQIYQFTDKDKDNVAPRSKISPQGY [SEQ ID NO: 154]
18 | 0.036 nM | 31.4 nM | GCRFGTCTVQRLAHQIYQFTDKDKDNVAPRTNISPQGY [SEQ ID NO: 140]

Row | hAMY3R EC50 (cAMP) (hAMY3R) | hAM1R EC50 (cAMP) (hAM1R) | Binder
19 | 0.045 nM | 116 nM | GCRFGTCTVQRLAHQIYQFTDKDKDNVAPRTKVSPQGY [SEQ ID NO: 155]
20 | 0.05 nM | 2980 nM | GCRTGTCTVQRLAHQIYQFTDKDKDNVAPRTNIGPQGY [SEQ ID NO: 160]
21 | 0.007 nM | > 5000 nM | KCNTATCTVQRLAHQIAQFTDKDKDNVAPPTNVGSNG[Hyp]-NH2 (disulfide 2-7 (inferred); ends not checked) [SEQ ID NO: 14]
22 | 0.033 nM | > 5000 nM | KCNTATCTVQRLAEQIK([AEEA-AEEA-γGlu-C20 diacid])QFTDKDKDNVAPPTNVGSNG[Hyp]-NH2 (disulfide 2-7 (inferred); ends not checked) [SEQ ID NO: 136]
23 | 0.007 nM | > 5000 nM | KCNTSTCTVARLADQITQFSDKDKANVSPPTEVGPNS[Hyp]-NH2 (disulfide 2-7 (inferred); ends not checked) [SEQ ID NO: 15]
24 | 0.048 nM | > 5000 nM | {C20 diacid-γGlu}-KCNTATCTVIRLAHQIYQFTDKDKDNVAPPTNVGSNG[Hyp]-NH2 (disulfide 2-7 (inferred); ends not checked) [SEQ ID NO: 159]
25 | 0.038 nM | 2980 nM | GCRTGTCTVQRLAHQIYQFTDKDKDNVAPRTKVGPQG[Hyp]-NH2 (disulfide 2-7 (inferred); ends not checked) [SEQ ID NO: 143]
26 | 0.036 nM | 258 nM | GCRFGTCTVQRLAHQIYQFTDKDKDNVAPRTNISPQG[Hyp]-NH2 (disulfide 2-7 (inferred); ends not checked) [SEQ ID NO: 141]
27 | 0.04 nM | 3110 nM | GCRIGTCTVQRLAHQIYQFTDKFKDNVAPRSKISPQT[Hyp]-NH2 (disulfide 2-7 (inferred); ends not checked) [SEQ ID NO: 147]
28 | 0.054 nM | 2980 nM | GCRTGTCTVQRLAHQIYQFTDKDKDNVAPRSNIGPQG[Hyp]-NH2 (disulfide 2-7 (inferred); ends not checked) [SEQ ID NO: 165]
29 | 0.008 nM | 125 nM | GCRFGTCTVQRLANFLYQFTDKDKDNVAPRTNVGPQGY [SEQ ID NO: 16]
30 | 0.04 nM | > 5000 nM | KCNTATCATQRLANFLVHSSNNFGAILSSTKIGSNGY [SEQ ID NO: 148]
31 | 0.051 nM | > 5000 nM | KCNTATCATQRLANFLVHSSNNFGAILPSTKIGPNGY [SEQ ID NO: 162]
32 | 0.04 nM | > 5000 nM | KCNTATCATQRLANFLVHSSNNFGAILPSTKVGPNGY [SEQ ID NO: 149]
33 | 0.01 nM | > 5000 nM | KCNTATCATQRLANFLVHSSNNFGAILSSTNVGSNTY (ligand, disulfide 2-7) [hAMY1-37]
34 | 0.053 nM | 2980 nM | GCRTGTCTVQRLAHQIYQFTDKDKDNVAPRTNVSPNG[Hyp]-NH2 (disulfide 2-7 (inferred); ends not checked) [SEQ ID NO: 163]
35 | 0.048 nM | 2980 nM | GCRFGTCTVQRLAHQIYQFTDKDKDNVAPRSNISPQG[Hyp]-NH2 (disulfide 2-7 (inferred); ends not checked) [SEQ ID NO: 158]
36 | 0.04 nM | > 5000 nM | GCRWGTCTVQRLAHQIYQFTDKDKDNVAPRSKISPQT[Hyp]-NH2 (disulfide 2-7 (inferred); ends not checked) [SEQ ID NO: 150]
